Experimental data reported in patent publication US20220177589A1 (OXFORD UNIVERSITY INNOVATION, published 2022).

Assays:
[1] = target: full length human BTLA expressed in a Jurkat T cell line (human, UniProt Q7Z6A9 31-289); test: cell-based or functional assay
[2] = target: chimeric BTLA of humanised-BTLA mice (human extracellular region, murine transmembrane and signaling … (human; mouse, UniProt Q7TSA3 184-306, limits assumed); test: cell-based or functional assay
Sequence of chimeric BTLA of humanised-BTLA mice (human extracellular region, murine transmembrane and signaling … (Q7TSA3 other isoform, or with tags, fused parts or gaps mutant limits assumed): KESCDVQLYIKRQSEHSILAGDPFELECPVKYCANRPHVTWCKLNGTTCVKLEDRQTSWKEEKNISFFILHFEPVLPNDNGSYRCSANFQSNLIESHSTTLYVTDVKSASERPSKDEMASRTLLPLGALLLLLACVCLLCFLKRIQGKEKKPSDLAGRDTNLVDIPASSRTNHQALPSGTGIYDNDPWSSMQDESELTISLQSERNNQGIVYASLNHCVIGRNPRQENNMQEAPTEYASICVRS

B1: 27G9 (antibody, IgG1, V domains shown)
VH: EVQLQQSVAELVRPGASVKLSCTASGFNIKNTYMHWVKQRPEQGLEWIGRIDPANGNTKYAPKFQGKATITADTSSNTAYLQLSSLTSEDTAIYYCALTYYGSSQYYFDYWGQGTTLTVSS
VL: not shown
[1]
  T cell reporter (NFkB signaling), % inhibition: 24%
[2]
  AntiCD3/CD28 (CD4 T cell proliferation) repeat 1, % inhibition: 10%
  AntiCD3/CD28 (CD4 T cell proliferation) repeat 2, % inhibition: 13%
  AntiCD3/CD28 (CD69+ CD4 T cells) repeat 1, % inhibition: 24%
  AntiCD3/CD28 (CD69+ CD4 T cells) repeat 2, % inhibition: 22%
  MLR (CD4 T cell proliferation) repeat 1, % inhibition: 9%
  MLR (CD4 T cell proliferation) repeat 2, % inhibition: 8%

B2: 1H6 (antibody, IgG1, V domains shown)
VH: EVQLQQSVAELVRPGASVKLSCTASGFNIKNTYMHWVKQRPEQGLEWIGRIDPANGNTKYDPKFQGKATITADTSSNTAYVQLSSLTSEDTAIYYCALTYYGSSQHYFDYWGQGTTLTVSS
VL: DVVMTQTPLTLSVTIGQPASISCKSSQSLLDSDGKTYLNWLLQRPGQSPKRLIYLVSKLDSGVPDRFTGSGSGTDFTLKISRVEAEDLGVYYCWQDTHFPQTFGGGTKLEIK
[1]
  T cell reporter (NFkB signaling), % inhibition: 26%
[2]
  AntiCD3/CD28 (CD4 T cell proliferation) repeat 1, % inhibition: 26%
  AntiCD3/CD28 (CD4 T cell proliferation) repeat 2, % inhibition: 19%
  AntiCD3/CD28 (CD69+ CD4 T cells) repeat 1, % inhibition: 47%
  AntiCD3/CD28 (CD69+ CD4 T cells) repeat 2, % inhibition: 53%
  MLR (CD4 T cell proliferation) repeat 1, % inhibition: 31%
  MLR (CD4 T cell proliferation) repeat 2, % inhibition: 16%

B3: 26F3 (antibody, IgG1, V domains shown)
VH: EVQLQQSVAELVRPGASVKLSCTASGFNIKNTYMYWVKQRPEQGLEWIGRIDPANGNTKYAPKFQGKATITADTSSNTAYLQLSSLTSEDTAIYYCALLYYGSSYDYFDYWGQGTTLTVSS
VL: not shown
[1]
  T cell reporter (NFkB signaling), % inhibition: 20%
[2]
  AntiCD3/CD28 (CD4 T cell proliferation) repeat 1, % inhibition: 4%
  AntiCD3/CD28 (CD4 T cell proliferation) repeat 2, % inhibition: 0%
  AntiCD3/CD28 (CD69+ CD4 T cells) repeat 1, % inhibition: 19%
  AntiCD3/CD28 (CD69+ CD4 T cells) repeat 2, % inhibition: 17%
  MLR (CD4 T cell proliferation) repeat 1, % inhibition: 9%
  MLR (CD4 T cell proliferation) repeat 2, % inhibition: -5%

B4: 3E8 (antibody, IgG1, V domains shown)
VH: QVQLQQSGAELARPGASVRLSCKASGYTFTSYAIRWVKQRTGQGLEWIGEIYPRSGNTYYNENFKGKATLTADKSSSTAYMELRSLTSEDSAVYFCARSGGASYTMDYWGQGTSVTVSS
VL: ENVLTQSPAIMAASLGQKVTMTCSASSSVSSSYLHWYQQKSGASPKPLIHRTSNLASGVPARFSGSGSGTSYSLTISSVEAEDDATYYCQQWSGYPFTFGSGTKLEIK
[1]
  T cell reporter (NFkB signaling), % inhibition: 30%
[2]
  AntiCD3/CD28 (CD4 T cell proliferation) repeat 1, % inhibition: 27%
  AntiCD3/CD28 (CD4 T cell proliferation) repeat 2, % inhibition: 35%
  AntiCD3/CD28 (CD69+ CD4 T cells) repeat 1, % inhibition: 52%
  AntiCD3/CD28 (CD69+ CD4 T cells) repeat 2, % inhibition: 64%
  MLR (CD4 T cell proliferation) repeat 1, % inhibition: 43%
  MLR (CD4 T cell proliferation) repeat 2, % inhibition: 35%

B5: 15B6 (antibody, IgG1, V domains shown)
VH: QVQLQQPGAELVKPGASVKLSCKASGYTFTSYWMHWVKQRPGQGLEWIGMIHPNSGSTNYNEKFKSKATLTVDKSSSTAYMQLSSLTSEDSAVYYCARKRGGLGDYWGQGTSVTVSS
VL: DIVLTQSPASLAVSLGQRATISCRASKSVSTSGYSYMHWYQQKPGQPPKLLIYLASNLESGVPARFSGSGSGTDFTLNIHPVEEEDAATYYCQHSRELPYTFGGGTKLEIK
[1]
  T cell reporter (NFkB signaling), % inhibition: 21%
[2]
  AntiCD3/CD28 (CD4 T cell proliferation) repeat 1, % inhibition: 9%
  AntiCD3/CD28 (CD4 T cell proliferation) repeat 2, % inhibition: 16%
  AntiCD3/CD28 (CD69+ CD4 T cells) repeat 1, % inhibition: 13%
  AntiCD3/CD28 (CD69+ CD4 T cells) repeat 2, % inhibition: 20%
  MLR (CD4 T cell proliferation) repeat 1, % inhibition: 7%
  MLR (CD4 T cell proliferation) repeat 2, % inhibition: 13%

B6: 26B1 (antibody, IgG1, V domains shown)
VH: EVQLQQSGPVLVKPGASVKMSCKASGYTFTDYYLNWVKQSHGKSLEWIGLIDPYNGGSSCNQKFKGKATLTVDKSSSTAYMDLNSLTSEDSAVYYCARGNAMDYWGQGTSVTVSS
VL: DIVMTQSHKFMSTSVGDRVSITCKASQDVSTAVAWYQEKPGQSPKLLIYWASTRHTGVPDRFTGSGSGTDYILNISSVQAEDLALYYCQQHYIIPYMFGGGTKLEIK
[1]
  T cell reporter (NFkB signaling), % inhibition: 29%
[2]
  AntiCD3/CD28 (CD4 T cell proliferation) repeat 1, % inhibition: 11%
  AntiCD3/CD28 (CD4 T cell proliferation) repeat 2, % inhibition: 19%
  AntiCD3/CD28 (CD69+ CD4 T cells) repeat 1, % inhibition: 35%
  AntiCD3/CD28 (CD69+ CD4 T cells) repeat 2, % inhibition: 30%
  MLR (CD4 T cell proliferation) repeat 1, % inhibition: 12%
  MLR (CD4 T cell proliferation) repeat 2, % inhibition: 10%

B7: 8C4 (antibody, IgG1, V domains shown)
VH: DVQLQESGPGMVKPSQSLSLTCTVTGYSITSGYDWHWIRHFPGNKLEWMGYISYSGSTNYNPSLKSRISITHDTSKNHFFLKLNSVTTEDTATYYCARGTPVVAEDYFDYWGQGTTLTVSS
VL: QAVVTQESALSTSPGETVTLTCRSSTGAVTTSNYANWVQEKPDHLFTGLIGATNNRAPGVPARFSGSLIGDKAALTITGAQTEDEAIYFCALWYSNHLVFGGGTKLTVLG
[1]
  T cell reporter (NFkB signaling), % inhibition: 21%
[2]
  AntiCD3/CD28 (CD4 T cell proliferation) repeat 1, % inhibition: 12%
  AntiCD3/CD28 (CD4 T cell proliferation) repeat 2, % inhibition: 4%
  AntiCD3/CD28 (CD69+ CD4 T cells) repeat 1, % inhibition: 29%
  AntiCD3/CD28 (CD69+ CD4 T cells) repeat 2, % inhibition: 29%
  MLR (CD4 T cell proliferation) repeat 1, % inhibition: 42%
  MLR (CD4 T cell proliferation) repeat 2, % inhibition: -2%

B8: 3A9 (antibody, IgG1, V domains shown)
VH: QVQLKQSGAELVRPGASVKLSCKASGYTFTDYYINWVKQRPGQGLEWIARIYPGSGNTYYNEKFKGKATLTAEKSSSTAYMQLSSLTSEDSAVYFCARGYGNSDYWGQGTTLTVSS
VL: DILLTQSPAILSVSPGERVSFSCRASQSIGTRIHWYQQRTNGSPRLLIKYASESISGIPSRFSGSGSGTDFTLSINSVESEDIADYYCQQSNSWPYTFGGGTKLEIK
[1]
  T cell reporter (NFkB signaling), % inhibition: 27%
[2]
  AntiCD3/CD28 (CD4 T cell proliferation) repeat 1, % inhibition: 9%
  AntiCD3/CD28 (CD4 T cell proliferation) repeat 2, % inhibition: 9%
  AntiCD3/CD28 (CD69+ CD4 T cells) repeat 1, % inhibition: 22%
  AntiCD3/CD28 (CD69+ CD4 T cells) repeat 2, % inhibition: 34%
  MLR (CD4 T cell proliferation) repeat 1, % inhibition: 7%
  MLR (CD4 T cell proliferation) repeat 2, % inhibition: 24%

B9: 10B1 (antibody, IgG1, V domains shown)
VH: QVQLQQSGAELARPGASVKLSCKASGYTFTSYGISWVKQRTGQGLEWIGEIYPRSGNTYYNEKFKGKATLTADKSSSTAYMELRSLTSEDSAVYFCARNYGSSYPFAYWGQGTLVTVSA
VL: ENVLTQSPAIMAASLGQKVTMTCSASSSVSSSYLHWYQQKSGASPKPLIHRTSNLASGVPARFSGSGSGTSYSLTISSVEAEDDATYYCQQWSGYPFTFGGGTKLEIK
[1]
  T cell reporter (NFkB signaling), % inhibition: 27%
[2]
  AntiCD3/CD28 (CD4 T cell proliferation) repeat 1, % inhibition: 8%
  AntiCD3/CD28 (CD4 T cell proliferation) repeat 2, % inhibition: 14%
  AntiCD3/CD28 (CD69+ CD4 T cells) repeat 1, % inhibition: 24%
  AntiCD3/CD28 (CD69+ CD4 T cells) repeat 2, % inhibition: 36%
  MLR (CD4 T cell proliferation) repeat 1, % inhibition: 16%
  MLR (CD4 T cell proliferation) repeat 2, % inhibition: 25%

B10: 16E1 (antibody, IgG1, V domains shown)
VH: QVQLQQSGAELARPGASVKLSCKASGYTFTSYGISWVKQRTGQGLEWIGEIYPRSGNTYYNEKFKGKATLTADKSSSTAYMELRSLTSEDSAVYFCARGYGSSYGFAYWGQGTLVTVSA
VL: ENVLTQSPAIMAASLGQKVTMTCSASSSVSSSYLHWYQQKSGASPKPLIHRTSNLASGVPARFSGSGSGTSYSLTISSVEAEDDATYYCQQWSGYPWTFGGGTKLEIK
[1]
  T cell reporter (NFkB signaling), % inhibition: 22%
[2]
  AntiCD3/CD28 (CD4 T cell proliferation) repeat 1, % inhibition: 4%
  AntiCD3/CD28 (CD4 T cell proliferation) repeat 2, % inhibition: 8%
  AntiCD3/CD28 (CD69+ CD4 T cells) repeat 1, % inhibition: 9%
  AntiCD3/CD28 (CD69+ CD4 T cells) repeat 2, % inhibition: 23%
  MLR (CD4 T cell proliferation) repeat 1, % inhibition: 33%
  MLR (CD4 T cell proliferation) repeat 2, % inhibition: 8%

B11: 7A1 (antibody, IgG1, V domains shown)
VH: QVQLQQSGPELVKPGASVKISCKASGYAFSSSWMNWVKQRPGKGLEWIGRIYPGDGDTNYNGKFKGKATLTADKSSSTAYMQLSSLTSEDSAVYFCARRGYGYLAYWGQGTLVTVSA
VL: DIVMTQSHKFMSTSVGDRVSITCKASQDVSTAVAWYQQKPGQSPKLLIYSASYRYTGVPDRFTGSGSGTDFTFTISSVQAEDLAVYYCQQHYSTPWTFGGGTKLEIK
[1]
  T cell reporter (NFkB signaling), % inhibition: 20%
[2]
  AntiCD3/CD28 (CD4 T cell proliferation) repeat 1, % inhibition: 14%
  AntiCD3/CD28 (CD4 T cell proliferation) repeat 2, % inhibition: 17%
  AntiCD3/CD28 (CD69+ CD4 T cells) repeat 1, % inhibition: 28%
  AntiCD3/CD28 (CD69+ CD4 T cells) repeat 2, % inhibition: 38%
  MLR (CD4 T cell proliferation) repeat 1, % inhibition: 23%
  MLR (CD4 T cell proliferation) repeat 2, % inhibition: 29%

B12: 15C6 (antibody, IgG1, V domains shown)
VH: QVQLQQSGPELVKPGASVKISCKASGYAFSSSWMNWVKQRPGKGLEWIGRIYPGDGDTNYNGKFKGKATLTADKSSSTAYMQLSSLTSEDSAVYFCARRGYGYLAYWGQGTLVTVSA
VL: DIVMTQSHKFMSTSVGDRVSITCKASQDVSTAVAWYQQKPGQSPKLLIYSASYRYTGVPDRFTGSGSGTDFTFTISSVQAEDLAVYYCQQHYSTPYTFGGGTKLEIK
[1]
  T cell reporter (NFkB signaling), % inhibition: 9%
[2]
  AntiCD3/CD28 (CD4 T cell proliferation) repeat 1, % inhibition: 2%
  AntiCD3/CD28 (CD4 T cell proliferation) repeat 2, % inhibition: -2%
  AntiCD3/CD28 (CD69+ CD4 T cells) repeat 1, % inhibition: 12%
  AntiCD3/CD28 (CD69+ CD4 T cells) repeat 2, % inhibition: 19%
  MLR (CD4 T cell proliferation) repeat 1, % inhibition: 19%
  MLR (CD4 T cell proliferation) repeat 2, % inhibition: 8%

B13: 12F11 (antibody, IgG1, V domains shown)
VH: EVQLQQSGPELVKPGASVKISCKASGYTFTDYYMNWVKQSHGKSLEWIGDINPNNGGTSYNQKFKGKATLTVDKSSSTAYMELRSLTSEDSAVYYCARWRQLRSDYWGQGTTLTVSS
VL: DIQMTQSPASQSASLGESVTITCLASQTIGTWLAWYQQKPGKSPQLLIYAATSLADGVPSRFSGSGSGTKFSFKISSLQAEDFVSYYCQQLYSTPLTFGAGTKLELK
[1]
  T cell reporter (NFkB signaling), % inhibition: 30%
[2]
  AntiCD3/CD28 (CD4 T cell proliferation) repeat 1, % inhibition: 5%
  AntiCD3/CD28 (CD4 T cell proliferation) repeat 2, % inhibition: 9%
  AntiCD3/CD28 (CD69+ CD4 T cells) repeat 1, % inhibition: 30%
  AntiCD3/CD28 (CD69+ CD4 T cells) repeat 2, % inhibition: 40%
  MLR (CD4 T cell proliferation) repeat 1, % inhibition: 28%
  MLR (CD4 T cell proliferation) repeat 2, % inhibition: 23%
